Experimental data: the supplement of paper PMC10724198
± gives the standard deviation of the averaged measurements.

test system: Saccharomyces cerevisiae; test: protein stability index of tFT-peptide fusion (C-terminal peptide) (PSI (0-1 scale)); higher = more stable (slower turnover); conditions: genetic background: wild type; temperature: 30 C
Method: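 Multiplexed protein stability (MPS) profiling in S. cerevisiae. Random 12-aa peptides (tFT-X12 library) are fused to the C-terminus of a sfGFP-mCherry tandem fluorescent timer, after mCherry and a GGGS linker. Cells are FACS-sorted into 8 mCherry/sfGFP bins and deep-sequenced. The protein stability index (PSI) is the read-weighted bin average, scaled from 0 (unstable) to 1 (stable). Only peptides with >10 reads are reported; cells were grown at 30 °C in SC-His with glucose.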
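Note: PSI is a weighted mean of sequencing reads over stability bins, variants kept only with over 10 reads, mCherry proximal and sfGFP distal, peptide attached via GGGS linker.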

| Sequence | protein stability index |
| --- | --- |
| VGQPWRLHFILR | 0.648 ± 0.0062 |
| TRYKSFWSLASI | 0.703 ± 0.064 |
| LSLSILFTPSPN | 0.682 ± 0.051 |
| APTPPPVLLTPP | 0.6694 ± 0.0063 |
| PRRPLPPSPPRE | 0.729 ± 0.022 |
| GIKKNQVSIRYI | 0.606 ± 0.03 |
| GDASLSSLHIRL | 0.642 ± 0.02 |
| LVRPGSTRDKRT | 0.736 ± 0.034 |
| GCWVNFLLTHFF | 0.527 ± 0.024 |
| RYLLPYQRRLFL | 0.745 ± 0.26 |
| WGECGVWVGLWG | 0.709 ± 0.051 |
| SCPHPAPPPPPP | 0.677 ± 0.023 |
| KTKKKQKQHRKQ | 0.686 ± 0.033 |
| PPPPRPPRPYSV | 0.767 ± 0.27 |
| VWGRLGGGVGRA | 0.719 ± 0.069 |
| WTLSDTRHVLPV | 0.6683 ± 0.00084 |
| RNEDYQKKRKGK | 0.701 ± 0.022 |
| PRRHLALLISEG | 0.6868 ± 0.00082 |
| SPRRSLPPAGFT | 0.71 ± 0.017 |
| IGGRRGVTGIFV | 0.699 ± 0.064 |
| PYFPLRPPSLPI | 0.6747 ± 0.0011 |
| ETEGSSSLGTRI | 0.661 ± 0.021 |
| FRPLWLPSGSAC | 0.611 ± 0.019 |
| RFFAVSLGGLEF | 0.687 ± 0.031 |
| CLFSVENNNILG | 0.704 ± 0.0015 |

| Sequence | protein stability index |
| --- | --- |
| TFLGEAGSVGVT | 0.646 ± 0.03 |
| RFVTLLSDFFLL | 0.681 ± 0.063 |
| RGVIKNKIKRLK | 0.768 ± 0.078 |
| WVVRVMYTSSGK | 0.556 ± 0.035 |
| GRAGQPCEGALP | 0.652 ± 0.021 |
| GPVVHSAPRVRL | 0.686 ± 0.069 |
| RGVAGSTLGLRI | 0.566 ± 0.069 |
| SPRPYFSLVLFF | 0.539 ± 0.0032 |
| FSLLCGPGLRGF | 0.72 ± 0.02 |
| GCLRLCYQHWSP | 0.6764 ± 0.005 |
| GVFIGWAGYKGT | 0.661 ± 0.027 |
| IVSISCPADWLD | 0.754 ± 0.034 |
| VQTIKPVPSGLR | 0.622 ± 0.078 |
| PPPPPPPTPIHP | 0.72 ± 0.01 |
| VCAVPSILPPPP | 0.6902 ± 0.0061 |
| RHPSAPRPVPLM | 0.695 ± 0.11 |
| HILSPRPAIGVL | 0.612 ± 0.021 |
| NKRKDEIKPRNV | 0.581 ± 0.049 |
| SRSGVSTRGVPC | 0.709 ± 0.0073 |
| PPSWASLRLPPT | 0.708 ± 0.072 |
| PLPPPSASPLPP | 0.539 ± 0.044 |
| SPTSTILKSYTR | 0.659 ± 0.086 |
| ITIRGLTGRFRQ | 0.713 ± 0.17 |
| SLSGPDIRLKPF | 0.673 ± 0.046 |
| GEGRAAGEIGGV | 0.707 ± 0.033 |

| Sequence | protein stability index |
| --- | --- |
| LRVGMWNNVINR | 0.734 ± 0.12 |
| DPLIILLSSVKL | 0.718 ± 0.0099 |
| GSPALGSCSWSR | 0.627 ± 0.057 |
| NKWKASRKYRKR | 0.723 ± 0.025 |
| NLCTPRFATDFG | 0.629 ± 0.028 |
| FFSPFSPALYTS | 0.756 ± 0.014 |
| NGVVAYHVQSFC | 0.6 ± 0.011 |
| LSRVLQAPRRGG | 0.681 ± 0.0075 |
| KRESETPKKHRK | 0.711 ± 0.068 |
| KARMEKKRKIKL | 0.728 ± 0.073 |
| SPPPNPPRPSSR | 0.768 ± 0.014 |
| GEQLNWSREPWY | 0.735 ± 0.038 |
| RGACGWVDWWGL | 0.856 ± 0.13 |
| FGAGLTACPVSV | 0.517 ± 0.036 |
| SYGPSGEFSFSF | 0.702 ± 0.0075 |
| VVRLTNGLFSIL | 0.662 ± 0.0094 |
| RPDSPSPLPPPP | 0.637 ± 0.028 |
| LLRRSNLLHLVL | 0.574 ± 0.049 |
| SARDQGISCAEC | 0.674 ± 0.04 |
| LSDKTALDRPVH | 0.625 ± 0.057 |
| PITKLHRHYARG | 0.6972 ± 0.0015 |
| NHVWGSNRCSSC | 0.689 ± 0.04 |
| RFWIVVRRQTRT | 0.6447 ± 0.00089 |
| KSAPAIRASRPR | 0.715 ± 0.0064 |
| LRRPVDPSHIPI | 0.663 ± 0.07 |

| Sequence | protein stability index |
| --- | --- |
| FRRCLCSLSLTS | 0.631 ± 0.012 |
| ARAAQPVHFLNL | 0.715 ± 0.059 |
| PLRFLLPLLLPF | 0.582 ± 0.0087 |
| PTHPHLTLTETP | 0.687 ± 0.017 |
| WKKYTKTKKKKN | 0.689 ± 0.021 |
| PPPFPPPTLPPP | 0.736 ± 0.039 |
| IAVSWIRGGRIM | 0.849 ± 0.13 |
| VIYIEYIGRNFI | 0.631 ± 0.027 |
| PSPPPPTVPHPP | 0.6779 ± 0.00096 |
| RSWVGVEWVGGM | 0.595 ± 0.094 |
| GPRRGRSGSGWM | 0.6499 ± 0.0057 |
| GVGCVGWGSSCA | 0.673 ± 0.093 |
| SKPTQQNRRPDG | 0.596 ± 0.028 |
| HHPTQRPRHRLG | 0.683 ± 0.082 |
| KETTEKTEIRII | 0.7 ± 0.012 |
| GWGSGSYRRRAV | 0.695 ± 0.055 |
| SGVLSLVDVWTG | 0.747 ± 0.1 |
| PPPLPPPPPLPP | 0.589 ± 0.038 |
| PFESSRRLAPSP | 0.722 ± 0.035 |
| RERAQEMGIRNE | 0.675 ± 0.031 |
| PPRYLCLGPGPC | 0.691 ± 0.03 |
| SPTRFLPVPTPF | 0.75 ± 0.052 |
| LVGGFLVSGRAR | 0.69 ± 0.051 |
| ALSGSFVSWLGG | 0.689 ± 0.061 |
| HYSMAPIPHDNR | 0.711 ± 0.074 |

| Sequence | protein stability index |
| --- | --- |
| GEGKAGGESEEP | 0.62 ± 0.068 |
| CREWNKAGWGNV | 0.702 ± 0.014 |
| HRYSGSTFSAVL | 0.728 ± 0.11 |
| KHRIEYQEKNTF | 0.67 ± 0.019 |
| ASHPESHIAWPA | 0.691 ± 0.03 |
| PSPSPPLAPPVT | 0.647 ± 0.038 |
| RLFCLRSVSLVS | 0.572 ± 0.015 |
| VFLRGGVLPLRR | 0.691 ± 0.012 |
| SFYIMSIQRKAK | 0.681 ± 0.052 |
| PVPPPPPPPLPP | 0.6 ± 0.03 |
| LLLDIFYWTVQS | 0.615 ± 0.049 |
| KENNWTKKKKGK | 0.655 ± 0.064 |
| LYSAHLAPGNAD | 0.656 ± 0.039 |
| SHHSVNWKPQGL | 0.668 ± 0.025 |
| PPRRSDSQQFSA | 0.676 ± 0.029 |
| HDAPTRQLTLPG | 0.663 ± 0.031 |
| CIIIIGRHSIWG | 0.672 ± 0.057 |
| LAPPVRECPFML | 0.692 ± 0.072 |
| VVWSGRWKGLRV | 0.621 ± 0.12 |
| RLVHSRPPPFAS | 0.794 ± 0.13 |
| AGGKRGGDGRWQ | 0.668 ± 0.014 |
| PPRATPPFPLPP | 0.648 ± 0.031 |
| GGGGGGGGCGVI | 0.77 ± 0.08 |
| VCGFRVGGYIGV | 0.723 ± 0.064 |
| PPSKRSKKPFRI | 0.698 ± 0.022 |

| Sequence | protein stability index |
| --- | --- |
| PPPPRAISPLLP | 0.666 ± 0.031 |
| ATATPPAPPPSP | 0.686 ± 0.011 |
| NPPELPVTENNP | 0.821 ± 0.17 |
| PIGLTCPASSVL | 0.692 ± 0.046 |
| PSHPPPPATPCP | 0.7108 ± 0.0065 |
| CSRLDVSEVVGD | 0.663 ± 0.074 |
| IGRVFGMENIKM | 0.669 ± 0.014 |
| SIIRDKERNNYK | 0.654 ± 0.015 |
| GRVVLRISCAQI | 0.6144 ± 0.00074 |
| TAAEECIGRAIG | 0.671 ± 0.04 |
| LLFTWGGRGCLG | 0.746 ± 0.032 |
| NKHYIQSHTDPD | 0.698 ± 0.023 |
| GIRKRIEKKKIK | 0.7 ± 0.051 |
| KGQKVAYSRHRA | 0.718 ± 0.063 |
| GDMSIWRSNNIT | 0.6723 ± 0.00088 |
| DVGISICLLHGA | 0.6664 ± 0.002 |
| KLKDRRKNTEEI | 0.6961 ± 0.0033 |
| LLLTGYGLLPST | 0.676 ± 0.079 |
| AILFGSSSWVVV | 0.659 ± 0.032 |
| MLRMSVSRGGLL | 0.729 ± 0.011 |
| KKSRLNRIVMRH | 0.664 ± 0.073 |
| VGTFGAGGYAPD | 0.646 ± 0.078 |
| TPHPPAAPPPPL | 0.766 ± 0.082 |
| FGIDVRPRPSQS | 0.698 ± 0.12 |
| LTRLAYGLATAL | 0.664 ± 0.019 |

| Sequence | protein stability index |
| --- | --- |
| PPGPLPTPPYPP | 0.545 ± 0.035 |
| LAHRASICLARL | 0.695 ± 0.063 |
| YLQESLVEMWIV | 0.65 ± 0.056 |
| APPPPQSRASSP | 0.7379 ± 0.0052 |
| SALRWPRPVLRV | 0.619 ± 0.017 |
| IRSLRWVRRESV | 0.706 ± 0.1 |
| ISVSTDSPVRTW | 0.639 ± 0.023 |
| VGGGLSLGGVWW | 0.691 ± 0.038 |
| LKPLRTWLSGSA | 0.719 ± 0.019 |
| FPFSDFVFLFCF | 0.57 ± 0.011 |
| IESLDRRGAEQI | 0.747 ± 0.045 |
| KQQRTKKKEKKR | 0.628 ± 0.097 |
| ASQTTKAKNTGH | 0.6688 ± 0.006 |
| RLTSPPYSFFLH | 0.644 ± 0.019 |
| PPPLLAPHPPPP | 0.697 ± 0.01 |
| SEGSLIPGSHIA | 0.733 ± 0.066 |
| KREKGLKQIVRL | 0.6827 ± 0.0029 |
| ILNNSDRAYTIQ | 0.731 ± 0.04 |
| RLDMKLAIDISR | 0.7631 ± 0.0011 |
| VFHCFVSRRRFC | 0.65 ± 0.022 |
| SLLTSSPLPSPP | 0.696 ± 0.043 |
| PFPALQHAISRE | 0.699 ± 0.066 |
| GDCIDCFKLVGI | 0.711 ± 0.035 |
| EEWGSLEWTAGR | 0.778 ± 0.019 |
| DRHLNRPRVKKR | 0.758 ± 0.076 |

| Sequence | protein stability index |
| --- | --- |
| PHSDGVRLAEGF | 0.713 ± 0.077 |
| GGWGWRSGTEGE | 0.665 ± 0.012 |
| SSWRVPLSVLPI | 0.67 ± 0.014 |
| AAPSPHPLNSLS | 0.687 ± 0.036 |
| GSLEGGGSGGGW | 0.6743 ± 0.0048 |
| LRVVISWGLDLY | 0.529 ± 0.02 |
| SVFGCLPFDLMV | 0.735 ± 0.0088 |
| YGAVRFTLIPLQ | 0.639 ± 0.024 |
| VGGGKRILVPRS | 0.691 ± 0.12 |
| TLTVCVNQGMTM | 0.668 ± 0.024 |
| DFCPVYRVIIWN | 0.646 ± 0.029 |
| MVIYGKEGWRIQ | 0.661 ± 0.07 |
| CGGFGGLYVVVF | 0.545 ± 0.014 |
| RAAPQEDFTFYR | 0.771 ± 0.14 |
| KNKTLNKIIRLP | 0.717 ± 0.042 |
| IIKDITNRGYAW | 0.724 ± 0.073 |
| LHPSPQRHKTLQ | 0.743 ± 0.017 |
| HTPPAPLPSSPH | 0.749 ± 0.0079 |
| WADLIPDSFGDM | 0.741 ± 0.059 |
| WCQREPSSKYKI | 0.578 ± 0.054 |
| SGVRGRGSFWSV | 0.664 ± 0.04 |
